Experimental data from patent US20160046725A1 (PIERRE FABRE MEDICAMENT, published 2016).

T1: recombinant mouse Axl-Fc protein (R and D Systems, cat N° 854-AX/CF) (mouse, UniProt Q00993 19-445)
T1 construct: extracellular domain; Bought construct; also called rmAxl-Fc; murine Axl ECD domain; not shown: Fc portion of the bought fusion (detected by anti-human IgG Fc)
T1 sequence (looked up): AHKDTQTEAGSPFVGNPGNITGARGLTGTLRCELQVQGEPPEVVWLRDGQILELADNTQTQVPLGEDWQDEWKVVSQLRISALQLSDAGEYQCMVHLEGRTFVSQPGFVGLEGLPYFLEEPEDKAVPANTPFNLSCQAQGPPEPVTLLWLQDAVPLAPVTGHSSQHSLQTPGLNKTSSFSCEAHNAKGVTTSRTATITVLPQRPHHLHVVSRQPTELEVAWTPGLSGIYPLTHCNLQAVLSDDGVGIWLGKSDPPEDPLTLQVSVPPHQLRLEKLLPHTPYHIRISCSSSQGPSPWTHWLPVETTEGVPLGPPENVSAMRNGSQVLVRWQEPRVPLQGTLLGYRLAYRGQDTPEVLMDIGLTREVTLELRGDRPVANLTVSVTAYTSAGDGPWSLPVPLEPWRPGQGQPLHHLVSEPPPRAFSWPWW


Target: T1, recombinant mouse Axl-Fc protein (R and …)
Assay: ELISA on coated rmAxl-Fc
Protocol: Briefly, the recombinant mouse Axl-Fc (R and D Systems, cat N° 854-AX/CF) proteins were coated overnight at 4° C. to Immulon II 96-well plates and, after a 1 h blocking step with a 0.5% gelatine solution, the 110D7, 1003A2, 1024G11, purified antibodies, respectively, were added for an additional 1 h at 37° C. at starting concentration of 5 μg/ml (3.33 10⁻⁸ M). Then ½ serial dilutions were done over 12 columns. Then plates were washed and a goat anti-mouse (Jackson) specific IgG HRP was added for 1 h at 37° C. Reaction development was performed using the TMB substrate solution. The commercial mouse anti-Axl Mab 154 antibody is also used in parallel. Coating controls are performed in presence of a goat anti-human IgG Fc polyclonal serum coupled with HRP (Jackson, ref 109-035-098) and in presence of a HRP-coupled anti-Histidine antibody (R and D Systems, ref: MAB050H). No specific binding is observed in absence of primary antibody (diluant).

Row | Binder | binding result
1 | 1024G11 anti-Axl monoclonal antibody (antibody, V domains shown, Murine monoclonal antibody purified from a hybridoma; a mIgG1 isotype control (9G4) is used beside it; also called monoclonal antibody 1024G11 derived from the hybridoma I-4501) VH: EVKLVESGGGLVQPGGSLNLSCAASGFTFSSYSMSWVRQTPEKRLEWVAFISNGGGRTYYPDTVKGRFTFSRDNARNTLYLQMSSLNSEDTAMYFCARGTTESYYAMDYWGQGTSVTVSS VL: DIVMTQSHKFMSTSVGDRVSITCKASQDVITAVAWYQQKPGQSPKLLIYWASTRHTGVPDRFTGSGSGTDYTLTISSVQAEDLALYFCQQHLSTPLTFGAGTKLELK | no binding
2 | 1003A2 anti-Axl monoclonal antibody (antibody, V domains shown, Murine monoclonal antibody purified from a hybridoma; a mIgG1 isotype control (9G4) is used beside it; also called monoclonal antibody 1003A2 derived from the hybridoma I-4499) VH: EVKLVESGGGLVQPGGSLKLSCAASGFTFNSYSMSWVRQTPEKRLEWVAYISNGGGRTYYPDTIKGRFTLSRDNDRNTLYLQMSSLKSEDTAMYYCARGTTESYYALDYWGQGTSVTVSS VL: DIVMTQSHKFMSTSLGDRISITCKASQDVITAVAWYQQKPGQSPKLLIYWASTRHTGVPDRFTGSGSGTDYNLTISSVQAEDLALYYCQQHFSTPLTFGAGTKLELK | no binding
